For this experiment, the target named is KRAS G12V (whole mutated KRAS gene linked to the LAMP3 signal peptide, as mRNA) peptide on (human). Kind of experiment: B13.1 TILs stimulated with APCs loaded with KRAS G12V mRNA, sorted PI- CD3+ CD137+, 10x single-cell V(D)J sequencing; ex vivo sorted cells. The conditions noted are these: chains alpha TRAV23/DV6*01 TRAJ58*01 CDR3:beta TRBV5-6*01 TRBJ2-7*01 CDR3.

B1: B13.1.2 (peptide)
chain 1: CAASEETSGSRLTF
chain 2: CASSWNLQASYEQYF
The molecule B1 registered a clonotype frequency among the sorted CD3+ CD137+ cells of 32.8%.

The values are drawn from paper PMC10243368.
